Results reported in patent US20240067944A1 (published 2024).
No end group written: not given here.

How the values were obtained:
Assay in all cases: ELISA, biotinylated 12-mer peptide on streptavidin, 2 ug/mL FLAG-tagged VHH, anti-FLAG-HRP
[1] = molecular target: T1, DAADLDPTENPF (human)
T1 peptide: DAADLDPTENPF-biotin
Procedure: (§1) To determine whether the binding epitope of the anti-FX VHH polypeptide designated “cmpd #1” are located inside the activation peptide (AP) of human FX (SEQ ID NO:2), an ELISA assay was setup. 41 unique 12-mer peptide fragments spanning the 52 residues of the activation peptide with one amino acid spacing were immobilized in microtiter plate wells followed by incubation with the VHH polypeptide to be tested, and detection of bound ligand was performed by addition of a secondary HRP-labelled antibody.
(§2) The peptides were C-terminally conjugated to biotin and 50 μL of 1 μg/mL peptide solution was used for immobilization in discrete wells of the microtiter plate which was pre-coated with 1 μg/mL streptavidin. Each well was washed with washing buffer (10 mM Tris, 150 mM NaCl, 2.5 mM CaCl₂), 0.05% Tween 20, pH 8.60) followed by addition of 50 μL of 2 μg/mL FLAG-tagged anti-FX VHH polypeptide or IgG antibody to be tested. After 1 hour non-bound VHH polypeptide was washed off using washing buffer.
(§3) Bound anti-FX activation peptide ligand was detected by first binding a HRP-labelled secondary antibody (for FLAG-tagged VHH polypeptide: Anti-FLAG mAb M2-Peroxidase (HRP) (Sigma Aldrich, US) for 1 hour, and then adding 100 μL TMB-1 ELISA substrate (Kem-En-Tec Diagnostics, Denmark).

[2] = molecular target: T2, FDLLDFNQTQPE (human)
T2 peptide: FDLLDFNQTQPE-biotin
Procedure: as §1, §2, §3

[3] = molecular target: T3, TQPERGDNNLTR (human)
T3 peptide: TQPERGDNNLTR-biotin
Procedure: as §1, §2, §3

[4] = molecular target: T4, LDPTENPFDLLD (human)
T4 peptide: LDPTENPFDLLD-biotin
Procedure: as §1, §2, §3

[5] = molecular target: T5, ATSSSGEAPDSI (human)
T5 peptide: ATSSSGEAPDSI-biotin
Procedure: as §1, §2, §3

[6] = molecular target: T6, SSSGEAPDSITW (human)
T6 peptide: SSSGEAPDSITW-biotin
Procedure: as §1, §2, §3

[7] = molecular target: T7, VAQATSSSGEAP (human)
T7 peptide: VAQATSSSGEAP-biotin
Procedure: as §1, §2, §3

[8] = molecular target: T8, DLDPTENPFDLL (human)
T8 peptide: DLDPTENPFDLL-biotin
Procedure: as §1, §2, §3

[9] = molecular target: T9, SVAQATSSSGEA (human)
T9 peptide: SVAQATSSSGEA-biotin
Procedure: as §1, §2, §3

[10] = molecular target: T10, EAPDSITWKPYD (human)
T10 peptide: EAPDSITWKPYD-biotin
Procedure: as §1, §2, §3

[11] = molecular target: T11, GEAPDSITWKPY (human)
T11 peptide: GEAPDSITWKPY-biotin
Procedure: as §1, §2, §3

[12] = molecular target: T12, PFDLLDFNQTQP (human)
T12 peptide: PFDLLDFNQTQP-biotin
Procedure: as §1, §2, §3

[13] = molecular target: T13, PYDAADLDPTEN (human)
T13 peptide: PYDAADLDPTEN-biotin
Procedure: as §1, §2, §3

[14] = molecular target: T14, QATSSSGEAPDS (human)
T14 peptide: QATSSSGEAPDS-biotin
Procedure: as §1, §2, §3

[15] = molecular target: T15, SSGEAPDSITWK (human)
T15 peptide: SSGEAPDSITWK-biotin
Procedure: as §1, §2, §3

[16] = molecular target: T16, AQATSSSGEAPD (human)
T16 peptide: AQATSSSGEAPD-biotin
Procedure: as §1, §2, §3

[17] = molecular target: T17, KPYDAADLDPTE (human)
T17 peptide: KPYDAADLDPTE-biotin
Procedure: as §1, §2, §3

[18] = molecular target: T18, NPFDLLDFNQTQ (human)
T18 peptide: NPFDLLDFNQTQ-biotin
Procedure: as §1, §2, §3

ELISA signal normalized relative to the background signal [1]: 0.88 relative to background
ELISA signal normalized relative to the background signal [2]: 4.38 relative to background
ELISA signal normalized relative to the background signal [3]: 1.05 relative to background
ELISA signal normalized relative to the background signal [4]: 1.11 relative to background
ELISA signal normalized relative to the background signal [5]: 0.98 relative to background
ELISA signal normalized relative to the background signal [6]: 0.86 relative to background
ELISA signal normalized relative to the background signal [7]: 1.02 relative to background
ELISA signal normalized relative to the background signal [8]: 1 relative to background
ELISA signal normalized relative to the background signal [9]: 0.96 relative to background
ELISA signal normalized relative to the background signal [10]: 0.97 relative to background
ELISA signal normalized relative to the background signal [11]: 0.93 relative to background
ELISA signal normalized relative to the background signal [12]: 4.95 relative to background
ELISA signal normalized relative to the background signal [13]: 0.83 relative to background
ELISA signal normalized relative to the background signal [14]: 0.96 relative to background
ELISA signal normalized relative to the background signal [15]: 0.88 relative to background
ELISA signal normalized relative to the background signal [16]: 0.97 relative to background
ELISA signal normalized relative to the background signal [17]: 0.8 relative to background
ELISA signal normalized relative to the background signal [18]: 3.13 relative to background
B1: Cmpd #1 (monovalent anti-FX VHH polypeptide, VHH-1.1) (VHH)
VHH: EVQLVESGGGLVQPGGSLRLSCAASGSIGAFDAMGWYRQAPGKQRELVAGIMVSRGNTNYTDSVKGRFTISRDNAKNTVYLQMNSLKPEDTAVYYCKAVKRPGPGYLEVWGQGTLVTVSS
notes: No protractor
